Data from patent US20140271457A1 (AbbVie / Abbott, published 2014).

Each binder was assayed against Recombinant Human TNF-α/TNFSF1A (human, UniProt P01375 77-233) (assay: cell-based or functional assay).
Recombinant Human TNF-α/TNFSF1A, sequence (P01375 77-233 limits assumed): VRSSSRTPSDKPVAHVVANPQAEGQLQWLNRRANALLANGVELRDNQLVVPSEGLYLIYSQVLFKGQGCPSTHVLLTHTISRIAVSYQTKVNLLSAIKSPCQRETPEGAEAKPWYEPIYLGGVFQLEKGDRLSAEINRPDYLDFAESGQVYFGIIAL

C-Terminal VD huTNFα Neutralization Assay IC50 | N-Terminal VD huTNFα Neutralization Assay IC50 | Binder
0.384 nM |  | DVD2752 (bispecific antibody, IgG1) VH: EVQLVQSGAEVKKPGASVKVSCKASGYTFTKYWLGWVRQAPGQGLEWMGDIYPGYDYTHYNEKFKDRVTLTTDTSTSTAYMELRSLRSDDTAVYYCARSDGSSTYWGQGTLVTVSSASTKGPSVFPLAPEVQLVESGGGLVQPGGSLRLSCAASGFTFSNYGVEWVRQAPGKGLEWVSGIWADGSTHYADTVKSRFTISRDNSKNTLYLQMNSLRAEDTAVYYCAREWQHGPVAYWGQGTLVTVSS VL: DVLMTQTPLSLPVTPGEPASISCTSSQNIVHSNGNTYLEWYLQKPGQSPQLLIYKVSNRFSGVPDRFSGSGSGTDFTLKISRVEAEDVGVYYCFQVSHVPYTFGGGTKVEIKRTVAAPDIQMTQSPSSLSASVGDRVTITCKASQLVSSAVAWYQQKPGKAPKLLIYWASTLHTGVPSRFSGSGSGTDFTLTISSLQPEDFATYYCQQHYRTPFTFGQGTKLEIKR
 | 0.003 nM | DVD2747 (bispecific antibody, IgG1) VH: EVQLVESGGGLVQPGGSLRLSCAASGFTFSNYGVEWVRQAPGKGLEWVSGIWADGSTHYADTVKSRFTISRDNSKNTLYLQMNSLRAEDTAVYYCAREWQHGPVAYWGQGTLVTVSSASTKGPSVFPLAPEVQLVQSGAEVKKPGASVKVSCKASGYTFTKYWLGWVRQAPGQGLEWMGDIYPGYDYTHYNEKFKDRVTLTTDTSTSTAYMELRSLRSDDTAVYYCARSDGSSTYWGQGTLVTVSS VL: DIQMTQSPSSLSASVGDRVTITCKASQLVSSAVAWYQQKPGKAPKLLIYWASTLHTGVPSRFSGSGSGTDFTLTISSLQPEDFATYYCQQHYRTPFTFGQGTKLEIKRTVAAPDVLMTQTPLSLPVTPGEPASISCTSSQNIVHSNGNTYLEWYLQKPGQSPQLLIYKVSNRFSGVPDRFSGSGSGTDFTLKISRVEAEDVGVYYCFQVSHVPYTFGGGTKVEIKR
2.88 nM |  | DVD2748 (bispecific antibody, IgG1) VH: EVQLVQSGAEVKKPGASVKVSCKASGYTFTKYWLGWVRQAPGQGLEWMGDIYPGYDYTHYNEKFKDRVTLTTDTSTSTAYMELRSLRSDDTAVYYCARSDGSSTYWGQGTLVTVSSGGGGSGGGGSEVQLVESGGGLVQPGGSLRLSCAASGFTFSNYGVEWVRQAPGKGLEWVSGIWADGSTHYADTVKSRFTISRDNSKNTLYLQMNSLRAEDTAVYYCAREWQHGPVAYWGQGTLVTVSS VL: DVLMTQTPLSLPVTPGEPASISCTSSQNIVHSNGNTYLEWYLQKPGQSPQLLIYKVSNRFSGVPDRFSGSGSGTDFTLKISRVEAEDVGVYYCFQVSHVPYTFGGGTKVEIKRGGSGGGGSGDIQMTQSPSSLSASVGDRVTITCKASQLVSSAVAWYQQKPGKAPKLLIYWASTLHTGVPSRFSGSGSGTDFTLTISSLQPEDFATYYCQQHYRTPFTFGQGTKLEIKR
3.08 nM |  | DVD2799 (bispecific antibody, IgG1) VH: EVQLVQSGAEVKKPGASVKVSCKASGYTFTKYWLGWVRQAPGQGLEWMGDIYPGYDYTHYNEKFKDRVTLTTDTSTSTAYMELRSLRSDDTAVYYCARSDGSSTYWGQGTLVTVSSASTKGPEVQLVQSGAEVKKPGASVKVSCKASGYTFANYGIIWVRQAPGQGLEWMGWINTYTGKPTYAQKFQGRVTMTTDTSTSTAYMELSSLRSEDTAVYYCARKLFTTMDVTDNAMDYWGQGTTVTVSS VL: DVLMTQTPLSLPVTPGEPASISCTSSQNIVHSNGNTYLEWYLQKPGQSPQLLIYKVSNRFSGVPDRFSGSGSGTDFTLKISRVEAEDVGVYYCFQVSHVPYTFGGGTKVEIKRTVAAPDIQMTQSPSSLSASVGDRVTITCRASQDISQYLNWYQQKPGKAPKLLIYYTSRLQSGVPSRFSGSGSGTDFTLTISSLQPEDFATYFCQQGNTWPPTFGQGTKLEIKR
0.195 nM |  | DVD2802 (bispecific antibody, IgG1) VH: EVQLVQSGAEVKKPGASVKVSCKASGYTFTKYWLGWVRQAPGQGLEWMGDIYPGYDYTHYNEKFKDRVTLTTDTSTSTAYMELRSLRSDDTAVYYCARSDGSSTYWGQGTLVTVSSASTKGPSVFPLAPEVQLVQSGAEVKKPGASVKVSCKASGYTFANYGIIWVRQAPGQGLEWMGWINTYTGKPTYAQKFQGRVTMTTDTSTSTAYMELSSLRSEDTAVYYCARKLFTTMDVTDNAMDYWGQGTTVTVSS VL: DVLMTQTPLSLPVTPGEPASISCTSSQNIVHSNGNTYLEWYLQKPGQSPQLLIYKVSNRFSGVPDRFSGSGSGTDFTLKISRVEAEDVGVYYCFQVSHVPYTFGGGTKVEIKRTVAAPDIQMTQSPSSLSASVGDRVTITCRASQDISQYLNWYQQKPGKAPKLLIYYTSRLQSGVPSRFSGSGSGTDFTLTISSLQPEDFATYFCQQGNTWPPTFGQGTKLEIKR
0.116 nM |  | DVD2801 (bispecific antibody, IgG1) VH: EVQLVQSGAEVKKPGASVKVSCKASGYTFTKYWLGWVRQAPGQGLEWMGDIYPGYDYTHYNEKFKDRVTLTTDTSTSTAYMELRSLRSDDTAVYYCARSDGSSTYWGQGTLVTVSSASTKGPEVQLVQSGAEVKKPGASVKVSCKASGYTFANYGIIWVRQAPGQGLEWMGWINTYTGKPTYAQKFQGRVTMTTDTSTSTAYMELSSLRSEDTAVYYCARKLFTTMDVTDNAMDYWGQGTTVTVSS VL: DVLMTQTPLSLPVTPGEPASISCTSSQNIVHSNGNTYLEWYLQKPGQSPQLLIYKVSNRFSGVPDRFSGSGSGTDFTLKISRVEAEDVGVYYCFQVSHVPYTFGGGTKVEIKRTVAAPSVFIFPPDIQMTQSPSSLSASVGDRVTITCRASQDISQYLNWYQQKPGKAPKLLIYYTSRLQSGVPSRFSGSGSGTDFTLTISSLQPEDFATYFCQQGNTWPPTFGQGTKLEIKR
0.381 nM |  | DVD2798 (bispecific antibody, IgG1) VH: EVQLVQSGAEVKKPGASVKVSCKASGYTFTKYWLGWVRQAPGQGLEWMGDIYPGYDYTHYNEKFKDRVTLTTDTSTSTAYMELRSLRSDDTAVYYCARSDGSSTYWGQGTLVTVSSGGGGSGGGGSEVQLVQSGAEVKKPGASVKVSCKASGYTFANYGIIWVRQAPGQGLEWMGWINTYTGKPTYAQKFQGRVTMTTDTSTSTAYMELSSLRSEDTAVYYCARKLFTTMDVTDNAMDYWGQGTTVTVSS VL: DVLMTQTPLSLPVTPGEPASISCTSSQNIVHSNGNTYLEWYLQKPGQSPQLLIYKVSNRFSGVPDRFSGSGSGTDFTLKISRVEAEDVGVYYCFQVSHVPYTFGGGTKVEIKRGGSGGGGSGDIQMTQSPSSLSASVGDRVTITCRASQDISQYLNWYQQKPGKAPKLLIYYTSRLQSGVPSRFSGSGSGTDFTLTISSLQPEDFATYFCQQGNTWPPTFGQGTKLEIKR
 | 0.006 nM | DVD2793 (bispecific antibody, IgG1) VH: EVQLVQSGAEVKKPGASVKVSCKASGYTFANYGIIWVRQAPGQGLEWMGWINTYTGKPTYAQKFQGRVTMTTDTSTSTAYMELSSLRSEDTAVYYCARKLFTTMDVTDNAMDYWGQGTTVTVSSGGGGSGGGGSEVQLVQSGAEVKKPGASVKVSCKASGYTFTKYWLGWVRQAPGQGLEWMGDIYPGYDYTHYNEKFKDRVTLTTDTSTSTAYMELRSLRSDDTAVYYCARSDGSSTYWGQGTLVTVSS VL: DIQMTQSPSSLSASVGDRVTITCRASQDISQYLNWYQQKPGKAPKLLIYYTSRLQSGVPSRFSGSGSGTDFTLTISSLQPEDFATYFCQQGNTWPPTFGQGTKLEIKRGGSGGGGSGDVLMTQTPLSLPVTPGEPASISCTSSQNIVHSNGNTYLEWYLQKPGQSPQLLIYKVSNRFSGVPDRFSGSGSGTDFTLKISRVEAEDVGVYYCFQVSHVPYTFGGGTKVEIKR
 | 0.008 nM | DVD3018 (bispecific antibody, IgG1) VH: EVQLVQSGAEVKKPGASVKVSCKASGYTFNNYGIIWVRQAPGQGLEWMGWINTYTGKPTYAQKFQGRVTMTTDTSTSTAYMELSSLRSEDTAVYYCARKLFNTVAVTDNAMDYWGQGTTVTVSSGGGGSGGGGSEVQLVQSGAEVKKPGASVKVSCKASGYTFTKYWLGWVRQAPGQGLEWMGDIYPGYDYTHYNEKFKDRVTLTTDTSTSTAYMELRSLRSDDTAVYYCARSDGSSTYWGQGTLVTVSS VL: DIQMTQSPSSLSASVGDRVTITCRASQDIENYLNWYQQKPGKAPKLLIYYTSRLQSGVPSRFSGSGSGTDFTLTISSLQPEDFATYFCQQGNTQPPTFGQGTKLEIKRGGSGGGGSGDVLMTQTPLSLPVTPGEPASISCTSSQNIVHSNGNTYLEWYLQKPGQSPQLLIYKVSNRFSGVPDRFSGSGSGTDFTLKISRVEAEDVGVYYCFQVSHVPYTFGGGTKVEIKR
 | 0.003 nM | DVD2794 (bispecific antibody, IgG1) VH: EVQLVQSGAEVKKPGASVKVSCKASGYTFANYGIIWVRQAPGQGLEWMGWINTYTGKPTYAQKFQGRVTMTTDTSTSTAYMELSSLRSEDTAVYYCARKLFTTMDVTDNAMDYWGQGTTVTVSSASTKGPEVQLVQSGAEVKKPGASVKVSCKASGYTFTKYWLGWVRQAPGQGLEWMGDIYPGYDYTHYNEKFKDRVTLTTDTSTSTAYMELRSLRSDDTAVYYCARSDGSSTYWGQGTLVTVSS VL: DIQMTQSPSSLSASVGDRVTITCRASQDISQYLNWYQQKPGKAPKLLIYYTSRLQSGVPSRFSGSGSGTDFTLTISSLQPEDFATYFCQQGNTWPPTFGQGTKLEIKRTVAAPDVLMTQTPLSLPVTPGEPASISCTSSQNIVHSNGNTYLEWYLQKPGQSPQLLIYKVSNRFSGVPDRFSGSGSGTDFTLKISRVEAEDVGVYYCFQVSHVPYTFGGGTKVEIKR
 | 0.01 nM | DVD2796 (bispecific antibody, IgG1) VH: EVQLVQSGAEVKKPGASVKVSCKASGYTFANYGIIWVRQAPGQGLEWMGWINTYTGKPTYAQKFQGRVTMTTDTSTSTAYMELSSLRSEDTAVYYCARKLFTTMDVTDNAMDYWGQGTTVTVSSASTKGPEVQLVQSGAEVKKPGASVKVSCKASGYTFTKYWLGWVRQAPGQGLEWMGDIYPGYDYTHYNEKFKDRVTLTTDTSTSTAYMELRSLRSDDTAVYYCARSDGSSTYWGQGTLVTVSS VL: DIQMTQSPSSLSASVGDRVTITCRASQDISQYLNWYQQKPGKAPKLLIYYTSRLQSGVPSRFSGSGSGTDFTLTISSLQPEDFATYFCQQGNTWPPTFGQGTKLEIKRTVAAPSVFIFPPDVLMTQTPLSLPVTPGEPASISCTSSQNIVHSNGNTYLEWYLQKPGQSPQLLIYKVSNRFSGVPDRFSGSGSGTDFTLKISRVEAEDVGVYYCFQVSHVPYTFGGGTKVEIKR
 | 0.002 nM | DVD2797 (bispecific antibody, IgG1) VH: EVQLVQSGAEVKKPGASVKVSCKASGYTFANYGIIWVRQAPGQGLEWMGWINTYTGKPTYAQKFQGRVTMTTDTSTSTAYMELSSLRSEDTAVYYCARKLFTTMDVTDNAMDYWGQGTTVTVSSASTKGPSVFPLAPEVQLVQSGAEVKKPGASVKVSCKASGYTFTKYWLGWVRQAPGQGLEWMGDIYPGYDYTHYNEKFKDRVTLTTDTSTSTAYMELRSLRSDDTAVYYCARSDGSSTYWGQGTLVTVSS VL: DIQMTQSPSSLSASVGDRVTITCRASQDISQYLNWYQQKPGKAPKLLIYYTSRLQSGVPSRFSGSGSGTDFTLTISSLQPEDFATYFCQQGNTWPPTFGQGTKLEIKRTVAAPDVLMTQTPLSLPVTPGEPASISCTSSQNIVHSNGNTYLEWYLQKPGQSPQLLIYKVSNRFSGVPDRFSGSGSGTDFTLKISRVEAEDVGVYYCFQVSHVPYTFGGGTKVEIKR
